Measurements: IntAct's records for PubMed 18787122

B1: Secreted effector protein SifA (Salmonella typhimurium), Q56061 (parent)
chain: MPITIGNGFLKSEILTNSPRNTKEAWWKVLWEKIKDFFFSTGKAKADRCLHEMLFAERAPTRERLTEIFFELKELACASQRDRFQVHNPHENDATIILRIMDQNEENELLRITQNTDTFSCEVMGNLYFLMKDRPDILKSHPQMTAMIKRRYSEIVDYPLPSTLCLNPAGAPILSVPLDNIEGYLYTELRKGHLDGWKAQEKATYLAAKIQSGIEKTTRILHHANISESTQQNAFLETMAMCGLKQLEIPPPHTHIPIEKMVKEVLLADKTFQAFLVTDPSTSQSMLAEIVEAISDQVFHAIFRIDPQAIQKMAEEQLTTLHVRSEQQSGCLCCFL
partner: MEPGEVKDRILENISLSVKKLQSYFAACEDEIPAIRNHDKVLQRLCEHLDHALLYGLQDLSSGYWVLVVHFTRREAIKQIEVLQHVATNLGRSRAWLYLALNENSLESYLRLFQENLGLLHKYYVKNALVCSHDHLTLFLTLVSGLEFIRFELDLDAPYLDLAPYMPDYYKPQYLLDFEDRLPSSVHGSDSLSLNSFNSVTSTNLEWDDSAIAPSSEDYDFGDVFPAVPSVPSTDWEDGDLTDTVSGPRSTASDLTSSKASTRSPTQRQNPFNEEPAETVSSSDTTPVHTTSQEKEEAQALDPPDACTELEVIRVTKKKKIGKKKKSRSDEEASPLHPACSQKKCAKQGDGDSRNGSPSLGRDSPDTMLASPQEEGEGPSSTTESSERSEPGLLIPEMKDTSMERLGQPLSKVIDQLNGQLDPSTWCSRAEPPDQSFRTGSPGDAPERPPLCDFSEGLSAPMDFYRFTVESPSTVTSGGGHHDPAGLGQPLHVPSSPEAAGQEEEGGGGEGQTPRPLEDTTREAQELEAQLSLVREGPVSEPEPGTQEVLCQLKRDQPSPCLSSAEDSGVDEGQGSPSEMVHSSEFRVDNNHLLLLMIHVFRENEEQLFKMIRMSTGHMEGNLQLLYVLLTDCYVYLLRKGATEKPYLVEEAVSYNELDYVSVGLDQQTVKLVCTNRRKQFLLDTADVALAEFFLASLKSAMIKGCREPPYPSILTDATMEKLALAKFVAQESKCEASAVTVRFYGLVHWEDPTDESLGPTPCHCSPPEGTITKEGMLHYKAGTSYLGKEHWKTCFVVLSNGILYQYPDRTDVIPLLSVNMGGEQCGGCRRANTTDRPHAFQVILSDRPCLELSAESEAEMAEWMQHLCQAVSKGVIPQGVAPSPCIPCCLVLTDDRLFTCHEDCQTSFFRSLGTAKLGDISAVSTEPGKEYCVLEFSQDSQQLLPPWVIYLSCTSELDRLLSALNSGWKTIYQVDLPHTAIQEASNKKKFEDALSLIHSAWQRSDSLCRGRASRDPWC

Variants of: B1
Details: with pkhm2_human PLEKHM2, Q8IWE5

Variant	effect of a mutation on the interaction
W197A;E201A	decreasing interaction
